Results reported in paper PMC11642994, “AGC family kinase of Entamoeba histolytica: Decoding the members biochemically” (PLOS Pathogens, 2024).

T1: EhAGCK1 WT (Entamoeba histolytica AGC family kinase 1, EHI_188930), full-length recombinant His-tagged protein (Entamoeba histolytica, UniProt C4M2W0 1-433)
T1 construct: also called His-EhAGCK1; source: E. coli C41(DE3), purified (Ni2+-NTA)
T1 sequence: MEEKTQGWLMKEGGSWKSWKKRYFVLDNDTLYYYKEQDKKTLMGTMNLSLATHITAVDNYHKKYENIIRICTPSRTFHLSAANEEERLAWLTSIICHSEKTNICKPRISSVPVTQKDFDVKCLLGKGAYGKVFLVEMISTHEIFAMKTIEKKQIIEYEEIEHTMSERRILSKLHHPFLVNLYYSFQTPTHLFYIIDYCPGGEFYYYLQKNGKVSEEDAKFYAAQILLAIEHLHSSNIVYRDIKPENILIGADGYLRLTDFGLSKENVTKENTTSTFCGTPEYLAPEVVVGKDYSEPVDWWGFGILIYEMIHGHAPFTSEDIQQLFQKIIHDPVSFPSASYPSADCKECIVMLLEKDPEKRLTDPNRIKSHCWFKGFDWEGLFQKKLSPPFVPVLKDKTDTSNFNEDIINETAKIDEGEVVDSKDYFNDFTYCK

T2: KDD1, kinase-dead EhAGCK1 (K147A and D241A) (Entamoeba histolytica, UniProt C4M2W0 1-433, K147A | D241A)
T2 construct: source: E. coli C41(DE3), purified (Ni2+-NTA)
T2 sequence: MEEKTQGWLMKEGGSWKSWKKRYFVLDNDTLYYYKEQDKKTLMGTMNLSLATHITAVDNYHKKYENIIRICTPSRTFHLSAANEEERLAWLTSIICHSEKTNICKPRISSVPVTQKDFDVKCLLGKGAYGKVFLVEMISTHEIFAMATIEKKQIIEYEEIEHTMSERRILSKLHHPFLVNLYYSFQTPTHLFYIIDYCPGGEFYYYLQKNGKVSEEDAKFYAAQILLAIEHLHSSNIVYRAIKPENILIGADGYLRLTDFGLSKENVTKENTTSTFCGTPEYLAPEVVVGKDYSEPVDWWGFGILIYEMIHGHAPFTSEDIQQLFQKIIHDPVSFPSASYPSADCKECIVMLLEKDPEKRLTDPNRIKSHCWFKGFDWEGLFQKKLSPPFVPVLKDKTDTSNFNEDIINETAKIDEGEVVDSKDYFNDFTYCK

T3: EhAGCK2 WT (Entamoeba histolytica AGC family kinase 2, EHI_053040), full-length recombinant His-tagged protein (Entamoeba histolytica, UniProt C4M3C2 1-434)
T3 construct: source: E. coli C41(DE3), purified (Ni2+-NTA)
T3 sequence: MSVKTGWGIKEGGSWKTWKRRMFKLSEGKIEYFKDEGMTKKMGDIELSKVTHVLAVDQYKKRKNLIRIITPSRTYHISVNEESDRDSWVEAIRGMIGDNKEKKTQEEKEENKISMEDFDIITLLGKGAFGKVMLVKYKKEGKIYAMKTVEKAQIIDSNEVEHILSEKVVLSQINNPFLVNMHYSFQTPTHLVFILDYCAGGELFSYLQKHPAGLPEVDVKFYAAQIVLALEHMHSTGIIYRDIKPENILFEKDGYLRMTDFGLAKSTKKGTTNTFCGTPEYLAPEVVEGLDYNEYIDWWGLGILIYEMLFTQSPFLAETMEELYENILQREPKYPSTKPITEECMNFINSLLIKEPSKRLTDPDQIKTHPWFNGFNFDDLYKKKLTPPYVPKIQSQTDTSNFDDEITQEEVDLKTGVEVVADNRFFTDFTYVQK

T4: KDD2, kinase-dead EhAGCK2 (K147A and D242A) (Entamoeba histolytica, UniProt C4M3C2 1-434, K147A | D242A)
T4 construct: source: E. coli C41(DE3), purified (Ni2+-NTA)
T4 sequence: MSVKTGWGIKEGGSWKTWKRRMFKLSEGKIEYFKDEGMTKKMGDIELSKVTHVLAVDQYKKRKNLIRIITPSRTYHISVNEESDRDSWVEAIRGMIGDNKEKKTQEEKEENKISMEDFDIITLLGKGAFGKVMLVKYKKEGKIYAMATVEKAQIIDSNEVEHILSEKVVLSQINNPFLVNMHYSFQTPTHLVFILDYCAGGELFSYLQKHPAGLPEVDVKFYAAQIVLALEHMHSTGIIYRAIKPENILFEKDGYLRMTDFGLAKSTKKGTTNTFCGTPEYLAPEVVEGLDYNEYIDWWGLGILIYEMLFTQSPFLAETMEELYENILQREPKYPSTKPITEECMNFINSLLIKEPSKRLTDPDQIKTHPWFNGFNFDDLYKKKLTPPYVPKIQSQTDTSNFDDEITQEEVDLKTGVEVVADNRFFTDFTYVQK


Legend:
[1] = substrate: Nc1ncnc2c1ncn2[C@@H]1O[C@H](COP(=O)(O)OP(=O)(O)OP(=O)(O)O)[C@@H](O)[C@H]1O; test: ADP-Glo luminescent kinase assay with 0-1000 uM ATP, 50 uM HsGSK3 peptide (GRPRTTSFAESCK) as co-substrate and 20 uM kinase, pH 7.5, 30 °C, Michaelis-Menten fit.; type: biochemical
Experimental: (§1) Fig 6 Graphs representing the Michaelis-Menten kinetics of EhAGCK1 and EhAGCK2. Panel A-D represents the Km and Vmax for peptide substrates, assays were performed in the presence of 20 μM EhAGCK1 (WT and KDD1) and EhAGCK2 (WT and KDD2) proteins were assayed in the presence of 250 μM ATP and serial dilutions (0 μM to 200 μM) of EhRhoGEF, EhCoactosin, and HsGSK3 peptide substrates. […] Panel E-H represents the Km and Vmax for ATP, assays were assessed in the presence of 50 μM peptide substrates (EhRhoGEF, EhCoactosin, and HsGSK3), serial dilution(0 μM to 1000 μM) of ATP, and 20 μM of the proteins EhAGCK1 (WT, and KDD1) and EhAGCK2 (WT, and KDD2). […] Relative luminescence unit (RLU) values are converted to μM/min using the method described in the Materials and Methods section. […]
(§2) Further, we determined the Km and Vmax values for ATP as it serves a vital metabolic molecule and substrate crucial for kinase activity, determining ATP Km and Vmax a key biochemical parameters for all kinases. […] Additionally, we compared previously determined Km and Vmax values of human Akt proteins in the presence of GSK3 peptide with our kinase protein results, which are presented in Table 1.
(§3) The phosphorylation activity of kinases was measured using the ADP-Glo kinase assay kit according to the manufacturer’s protocol with few modifications (Promega, Madison, WI, Catalogue number V6930). […]

[2] = substrate: Nc1ncnc2c1ncn2[C@@H]1O[C@H](COP(=O)(O)OP(=O)(O)OP(=O)(O)O)[C@@H](O)[C@H]1O; test: ADP-Glo luminescent kinase assay with 0-1000 uM ATP, 50 uM EhRhoGEF peptide as co-substrate and 20 uM kinase, pH 7.5, 30 °C, Michaelis-Menten fit.; type: biochemical
Experimental: as §1, §2, §3

[3] = substrate: Nc1ncnc2c1ncn2[C@@H]1O[C@H](COP(=O)(O)OP(=O)(O)OP(=O)(O)O)[C@@H](O)[C@H]1O; test: ADP-Glo luminescent kinase assay with 0-1000 uM ATP, 50 uM EhCoactosin peptide as co-substrate and 20 uM kinase, pH 7.5, 30 °C, Michaelis-Menten fit.; type: biochemical
Experimental: as §1, §2, §3

[4] = biological target: T1, EhAGCK1 WT (Entamoeba histolytica AGC …); test: MST; His-tagged kinase labelled with RED-tris-NTA 2nd Generation dye, kept constant (50 nM by the legend); unlabelled peptide in 16 1:1 dilutions, 500 uM to 153 nM as printed; 50 mM Tris-Cl pH 8, 150 mM NaCl, 1 mM beta-ME, 5% glycerol; 25 C; Monolith NT.115, 50% LED, medium MST power; settings: both partners purified
[5] = biological target: T2, KDD1, kinase-dead EhAGCK1 (K147A and …); test: as above; settings: both partners purified
[6] = biological target: T3, EhAGCK2 WT (Entamoeba histolytica AGC …); test: as above; settings: both partners purified
[7] = biological target: T4, KDD2, kinase-dead EhAGCK2 (K147A and …); test: as above; settings: both partners purified

Binder	Km [1] [μM uM]	Km [2] [µM]	Km [3] [µM]	Kd [4] [µM]	Kd [5] [µM]	Kd [6] [µM]	Kd [7] [µM]
EhAGCK1 WT (Entamoeba histolytica HM-1:IMSS) (protein, full-length, His-tagged (pCold), expressed in E. coli C41(DE3)) MEEKTQGWLMKEGGSWKSWKKRYFVLDNDTLYYYKEQDKKTLMGTMNLSLATHITAVDNYHKKYENIIRICTPSRTFHLSAANEEERLAWLTSIICHSEKTNICKPRISSVPVTQKDFDVKCLLGKGAYGKVFLVEMISTHEIFAMKTIEKKQIIEYEEIEHTMSERRILSKLHHPFLVNLYYSFQTPTHLFYIIDYCPGGEFYYYLQKNGKVSEEDAKFYAAQILLAIEHLHSSNIVYRDIKPENILIGADGYLRLTDFGLSKENVTKENTTSTFCGTPEYLAPEVVVGKDYSEPVDWWGFGILIYEMIHGHAPFTSEDIQQLFQKIIHDPVSFPSASYPSADCKECIVMLLEKDPEKRLTDPNRIKSHCWFKGFDWEGLFQKKLSPPFVPVLKDKTDTSNFNEDIINETAKIDEGEVVDSKDYFNDFTYCK	241.7 ±22.2	125.4					
EhAGCK2 WT (Entamoeba histolytica HM-1:IMSS) (protein, full-length, His-tagged (pCold), expressed in E. coli C41(DE3)) MSVKTGWGIKEGGSWKTWKRRMFKLSEGKIEYFKDEGMTKKMGDIELSKVTHVLAVDQYKKRKNLIRIITPSRTYHISVNEESDRDSWVEAIRGMIGDNKEKKTQEEKEENKISMEDFDIITLLGKGAFGKVMLVKYKKEGKIYAMKTVEKAQIIDSNEVEHILSEKVVLSQINNPFLVNMHYSFQTPTHLVFILDYCAGGELFSYLQKHPAGLPEVDVKFYAAQIVLALEHMHSTGIIYRDIKPENILFEKDGYLRMTDFGLAKSTKKGTTNTFCGTPEYLAPEVVEGLDYNEYIDWWGLGILIYEMLFTQSPFLAETMEELYENILQREPKYPSTKPITEECMNFINSLLIKEPSKRLTDPDQIKTHPWFNGFNFDDLYKKKLTPPYVPKIQSQTDTSNFDDEITQEEVDLKTGVEVVADNRFFTDFTYVQK	291± 74.4		92.06				
GRPRTTSFAESCK (also called human GSK3 peptide substrate; source: synthetic peptide) [human GSK3 (HsGSK3) peptide]				2.62	1080	0.0848	2.38
